Reference: the supplement of paper PMC10567573

B1: FAM189A2 (parent)
chain: VAAALRYLQIFATRRSCIDESQIS
B2: PTPN9 (parent)
chain: ILFSLPPALDWDSVHVPGPHAMTI

Variants of: B1
Assay: protein stability index of a GFP-peptide fusion (GPS, HEK-293T) (PSI 1-6); higher = more stable
Conditions: c terminus: a fixed tail appended
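Further: lentivirally expressed fusions sorted by FACS into six bins by GFP to DsRed ratio, PSI derived from sequencing read proportions per bin multiplied by bin number.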

Variant	protein stability index
VAAALRYLQIFATRRSCIDESQIP [S24P]	4.3
VAAALRYLQIFATRRSCIDESQIT [S24T]	2.85
VAAALRYLQIFATRRSCIDESQIH [S24H]	2.29
VAAALRYLQIFATRRSCIDESQIC [S24C]	3.79
VAAALRYLQIFATRRSCIDESQII [S24I]	2.9
VAAALRYLQIFATRRSCIDESQIA [S24A]	2.76
VAAALRYLQIFATRRSCIDESQIQ [S24Q]	2.04
VAAALRYLQIFATRRSCIDESQIE [S24E]	1.52
VAAALRYLQIFATRRSCIDESQIM [S24M]	2.07
VAAALRYLQIFATRRSCIDESQIY [S24Y]	1.78
VAAALRYLQIFATRRSCIDESQIK [S24K]	1.16
VAAALRYLQIFATRRSCIDESQIF [S24F]	3.22
VAAALRYLQIFATRRSCIDESQIR [S24R]	3.04
VAAALRYLQIFATRRSCIDESQIG [S24G]	2.54
VAAALRYLQIFATRRSCIDESQLS [I23L]	1.61
VAAALRYLQIFATRRSCIDESQFS [I23F]	2.9
VAAALRYLQIFATRRSCIDESQHS [I23H]	1.69
VAAALRYLQIFATRRSCIDESQES [I23E]	2.76
VAAALRYLQIFATRRSCIDESQSS [I23S]	1.84
VAAALRYLQIFATRRSCIDESQMS [I23M]	1.35
VAAALRYLQIFATRRSCIDESQNS [I23N]	3.01
VAAALRYLQIFATRRSCIDESQPS [I23P]	2.46
VAAALRYLQIFATRRSCIDESQRS [I23R]	1.91
VAAALRYLQIFATRRSCIDESQQS [I23Q]	1.88
VAAALRYLQIFATRRSCIDESQWS [I23W]	1.87
VAAALRYLQIFATRRSCIDESQGS [I23G]	1.52
VAAALRYLQIFATRRSCIDESQYS [I23Y]	3.27
VAAALRYLQIFATRRSCIDESQKS [I23K]	1.94
VAAALRYLQIFATRRSCIDESQTS [I23T]	2.18

Variants of: B2
Assay: as above
Conditions: c terminus: a fixed tail appended

Variant	protein stability index
ILLSLPPALDWDSVHVPGPHAMTI [F3L]	4.01
ILNSLPPALDWDSVHVPGPHAMTI [F3N]	1.83
ILISLPPALDWDSVHVPGPHAMTI [F3I]	2.7
ILMSLPPALDWDSVHVPGPHAMTI [F3M]	1.21
ILSSLPPALDWDSVHVPGPHAMTI [F3S]	1.49
ILRSLPPALDWDSVHVPGPHAMTI [F3R]	2.25
ILHSLPPALDWDSVHVPGPHAMTI [F3H]	2.03
ILTSLPPALDWDSVHVPGPHAMTI [F3T]	2.38
ILQSLPPALDWDSVHVPGPHAMTI [F3Q]	3.1
ILASLPPALDWDSVHVPGPHAMTI [F3A]	1.1
ILPSLPPALDWDSVHVPGPHAMTI [F3P]	2.27
ILYSLPPALDWDSVHVPGPHAMTI [F3Y]	2.21
ILESLPPALDWDSVHVPGPHAMTI [F3E]	1.87
ILCSLPPALDWDSVHVPGPHAMTI [F3C]	2.62
ILKSLPPALDWDSVHVPGPHAMTI [F3K]	1.95
ILDSLPPALDWDSVHVPGPHAMTI [F3D]	1.77
ILWSLPPALDWDSVHVPGPHAMTI [F3W]	1.61
ILFSLWPALDWDSVHVPGPHAMTI [P6W]	2.15
ILFSLCPALDWDSVHVPGPHAMTI [P6C]	2.37
ILFSLFPALDWDSVHVPGPHAMTI [P6F]	1.95
ILFSLQPALDWDSVHVPGPHAMTI [P6Q]	2.46
ILFSLIPALDWDSVHVPGPHAMTI [P6I]	3.44

Variant	protein stability index
ILFSLYPALDWDSVHVPGPHAMTI [P6Y]	2.91
ILFSLRPALDWDSVHVPGPHAMTI [P6R]	3.66
ILFSLKPALDWDSVHVPGPHAMTI [P6K]	1.97
ILFSLAPALDWDSVHVPGPHAMTI [P6A]	3.2
ILFSLGPALDWDSVHVPGPHAMTI [P6G]	1.32
ILFSLLPALDWDSVHVPGPHAMTI [P6L]	4.02
ILFSLMPALDWDSVHVPGPHAMTI [P6M]	1.89
ILFSLPRALDWDSVHVPGPHAMTI [P7R]	2.18
ILFSLPMALDWDSVHVPGPHAMTI [P7M]	1.68
ILFSLPCALDWDSVHVPGPHAMTI [P7C]	2.03
ILFSLPNALDWDSVHVPGPHAMTI [P7N]	2.98
ILFSLPQALDWDSVHVPGPHAMTI [P7Q]	2.33
ILFSLPDALDWDSVHVPGPHAMTI [P7D]	1.01
ILFSLPFALDWDSVHVPGPHAMTI [P7F]	3.57
ILFSLPAALDWDSVHVPGPHAMTI [P7A]	1.87
ILFSLPEALDWDSVHVPGPHAMTI [P7E]	2.43
ILFSLPVALDWDSVHVPGPHAMTI [P7V]	4.23
ILFSLPHALDWDSVHVPGPHAMTI [P7H]	4.13
ILFSLPIALDWDSVHVPGPHAMTI [P7I]	2.49
ILFTLPPALDWDSVHVPGPHAMTI [S4T]	2.17
ILFHLPPALDWDSVHVPGPHAMTI [S4H]	3.16
ILFWLPPALDWDSVHVPGPHAMTI [S4W]	2.79

Variant	protein stability index
ILFKLPPALDWDSVHVPGPHAMTI [S4K]	1.98
ILFGLPPALDWDSVHVPGPHAMTI [S4G]	2.46
ILFLLPPALDWDSVHVPGPHAMTI [S4L]	2.55
ILFFLPPALDWDSVHVPGPHAMTI [S4F]	2.61
ILFILPPALDWDSVHVPGPHAMTI [S4I]	3.06
ILFRLPPALDWDSVHVPGPHAMTI [S4R]	2.6
ILFDLPPALDWDSVHVPGPHAMTI [S4D]	2.38
ILFPLPPALDWDSVHVPGPHAMTI [S4P]	2.01
ILFQLPPALDWDSVHVPGPHAMTI [S4Q]	3.13
ILFALPPALDWDSVHVPGPHAMTI [S4A]	2.31
ILFMLPPALDWDSVHVPGPHAMTI [S4M]	3.28
ILFVLPPALDWDSVHVPGPHAMTI [S4V]	2.49
ILFELPPALDWDSVHVPGPHAMTI [S4E]	1.75
ILFNLPPALDWDSVHVPGPHAMTI [S4N]	2.5
ILFSHPPALDWDSVHVPGPHAMTI [L5H]	1.76
ILFSEPPALDWDSVHVPGPHAMTI [L5E]	1.47
ILFSFPPALDWDSVHVPGPHAMTI [L5F]	4.35
ILFSTPPALDWDSVHVPGPHAMTI [L5T]	2.99
ILFSNPPALDWDSVHVPGPHAMTI [L5N]	1.32
ILFSDPPALDWDSVHVPGPHAMTI [L5D]	2.43
ILFSSPPALDWDSVHVPGPHAMTI [L5S]	2.25
